Measurements published in the supplement of paper PMC11780869.

System: Bacillus subtilis
Experiment: cleaved RNA product abundance (RNA/gDNA barcode ratio) relative to median wild-type variant (ratio to wild type); higher = more accumulation of the downstream cleavage product
Conditions: cleavage site: cggR-gapA (positions -7 to +36 mutated)
Outline: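 The B. subtilis chromosome carried reporter mRNAs, truncated aprE or tetM, containing barcoded RNase Y cleavage-site windows mutagenized using oligos with a 9% error rate. After growth in LB at 37°C from OD600 0.0003 to 0.3, cleaved RNA was gel-selected, reverse transcribed and barcode-sequenced next to genomic DNA barcodes, with UMI collapsing. Each construct's RNA:gDNA barcode ratio was scaled to the median construct with the unmutated site. That scaled ratio is reported as cleaved product abundance.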

[1] = experiment (reporter, strain, medium): exp 2b: truncated aprE reporter, strain BJT200
[2] = experiment (reporter, strain, medium): exp 4a: truncated aprE reporter, strain BJT201 with 2% xylose (RNase J1 expressed)

Row | Sequence | cleaved RNA product abundance [1] | cleaved RNA product abundance [2] | cleaved RNA product abundance (experiment (reporter, strain, medium): exp 6: tetM reporter, strain 168)
1 | ACAGACGAAGGAGCCGCTAAGAAATTATTAAGGGATGAATAATCCCTCAATATAAATATCTCTCACTTATTTAAA | 0.556 | – | –
2 | ACAGACGAAGGAGCCGCTAAGAAGATATTAAGGGATGAATAATCCCTCAATATAAATATCTCTCACTTATTTAAA | 0.625 | – | –
3 | ACAGACGAAGGAGCCGCTAAGAAGCTATTAAGGGATGAATAATCCCTCAATATAAATATCTCTCACTTATTTAAA | – | 0.52 | –
4 | ACAGACGAAGGAGCCGCTAAGAAGTAATTAAGGGATGAATAATCCCTCAATATAAATATCTCTCACTTATTTAAA | – | 0.309 | –
5 | ACAGACGAAGGAGCCGCTAAGAAGTGATTAAGGGATGAATAATCCCTCAATATAAATATCTCTCACTTATTTAAA | – | 0.419 | –
6 | ACAGACGAAGGAGCCGCTAAGAAGTTACTAAGGGATGAATAATCCCTCAATATAAATATCTCTCACTTATTTAAA | 0.186 | – | –
7 | ACAGACGAAGGAGCCGCTAAGAAGTTATTAAAGGATGAATAATCCCTCAATATAAATATCTCTCACTTATTTAAA | – | 0.157 | –
8 | ACAGACGAAGGAGCCGCTAAGAAGTTATTAAGAGATGAATAATCCCTCAATATAAATATCTCTCACTTATTTAAA | 0.126 | 0.135 | –
9 | ACAGACGAAGGAGCCGCTAAGAAGTTATTAAGGAATGAATAATCCCTCAATATAAATATCTCTCACTTATTTAAA | – | 0.0845 | –
10 | ACAGACGAAGGAGCCGCTAAGAAGTTATTAAGGCATGAATAATCCCTCAATATAAATATCTCTCACTTATTTAAA | 0.115 | – | –
11 | ACAGACGAAGGAGCCGCTAAGAAGTTATTAAGGGAAGAATAATCCCTCAATATAAATATCTCTCACTTATTTAAA | – | 0.638 | –
12 | ACAGACGAAGGAGCCGCTAAGAAGTTATTAAGGGACGAATAATCCCTCAATATAAATATCTCTCACTTATTTAAA | – | 0.573 | –
13 | ACAGACGAAGGAGCCGCTAAGAAGTTATTAAGGGAGGAATAATCCCTCAATATAAATATCTCTCACTTATTTAAA | – | 0.993 | –
14 | ACAGACGAAGGAGCCGCTAAGAAGTTATTAAGGGATAAATAATCCCTCAATATAAATATCTCTCACTTATTTAAA | – | 1.15 | –
15 | ACAGACGAAGGAGCCGCTAAGAAGTTATTAAGGGATGAATAAACCCTCAATATAAATATCTCTCACTTATTTAAA | 0.537 | 0.689 | –
16 | ACAGACGAAGGAGCCGCTAAGAAGTTATTAAGGGATGAATAACCCCTCAATATAAATATCTCTCACTTATTTAAA | – | 0.437 | –
17 | ACAGACGAAGGAGCCGCTAAGAAGTTATTAAGGGATGAATAATACCTCAATATAAATATCTCTCACTTATTTAAA | – | 0.15 | –
18 | ACAGACGAAGGAGCCGCTAAGAAGTTATTAAGGGATGAATAATCACTCAATATAAATATCTCTCACTTATTTAAA | – | 0.129 | –
19 | ACAGACGAAGGAGCCGCTAAGAAGTTATTAAGGGATGAATAATCCATCAATATAAATATCTCTCACTTATTTAAA | – | 0.186 | –
20 | ACAGACGAAGGAGCCGCTAAGAAGTTATTAAGGGATGAATAATCCCACAATATAAATATCTCTCACTTATTTAAA | – | 0.252 | –
21 | ACAGACGAAGGAGCCGCTAAGAAGTTATTAAGGGATGAATAATCCCCCAATATAAATATCTCTCACTTATTTAAA | – | 0.342 | –
22 | ACAGACGAAGGAGCCGCTAAGAAGTTATTAAGGGATGAATAATCCCTAAATATAAATATCTCTCACTTATTTAAA | 0.745 | 0.831 | –
23 | ACAGACGAAGGAGCCGCTAAGAAGTTATTAAGGGATGAATAATCCCTCAACATAAATATCTCTCACTTATTTAAA | – | 0.291 | –
24 | ACAGACGAAGGAGCCGCTAAGAAGTTATTAAGGGATGAATAATCCCTCAAGATAAATATCTCTCACTTATTTAAA | 0.249 | 0.322 | –

Row | Sequence | cleaved RNA product abundance [1] | cleaved RNA product abundance [2] | cleaved RNA product abundance (experiment (reporter, strain, medium): exp 6: tetM reporter, strain 168)
25 | ACAGACGAAGGAGCCGCTAAGAAGTTATTAAGGGATGAATAATCCCTCAATATAAATATCTCTCACTTATTTAAA | 1.04 | 0.985 | 1.03
26 | ACAGACGAAGGAGCCGCTAAGAAGTTATTAAGGGATGAATAATCCCTCAATGTAAATATCTCTCACTTATTTAAA | – | 0.0932 | –
27 | ACAGACGAAGGAGCCGCTAAGAAGTTATTAAGGGATGAATAATCCCTCTATATAAATATCTCTCACTTATTTAAA | – | 0.509 | –
28 | ACAGACGAAGGAGCCGCTAAGAAGTTATTAAGGGATGAATAATCCTTCAATATAAATATCTCTCACTTATTTAAA | 0.434 | 0.597 | –
29 | ACAGACGAAGGAGCCGCTAAGAAGTTATTAAGGGATGAATAATCTCTCAATATAAATATCTCTCACTTATTTAAA | – | 1.12 | –
30 | ACAGACGAAGGAGCCGCTAAGAAGTTATTAAGGGATGAATAATGCCTCAATATAAATATCTCTCACTTATTTAAA | – | 0.154 | –
31 | ACAGACGAAGGAGCCGCTAAGAAGTTATTAAGGGATGAATAATTCCTCAATATAAATATCTCTCACTTATTTAAA | 0.713 | – | –
32 | ACAGACGAAGGAGCCGCTAAGAAGTTATTAAGGGATGAATATTCCCTCAATATAAATATCTCTCACTTATTTAAA | – | 0.667 | –
33 | ACAGACGAAGGAGCCGCTAAGAAGTTATTAAGGGATGAATTATCCCTCAATATAAATATCTCTCACTTATTTAAA | – | 0.874 | –
34 | ACAGACGAAGGAGCCGCTAAGAAGTTATTAAGGGATGACTAATCCCTCAATATAAATATCTCTCACTTATTTAAA | – | 0.542 | –
35 | ACAGACGAAGGAGCCGCTAAGAAGTTATTAAGGGATGCATAATCCCTCAATATAAATATCTCTCACTTATTTAAA | 0.968 | 0.814 | –
36 | ACAGACGAAGGAGCCGCTAAGAAGTTATTAAGGGATTAATAATCCCTCAATATAAATATCTCTCACTTATTTAAA | – | 1.02 | –
37 | ACAGACGAAGGAGCCGCTAAGAAGTTATTAAGGGTTGAATAATCCCTCAATATAAATATCTCTCACTTATTTAAA | – | 0.377 | –
38 | ACAGACGAAGGAGCCGCTAAGAAGTTATTAAGGTATAAATAATCCCTCAATATAAATATCTCTCACTTATTTAAA | – | 0.0621 | –
39 | ACAGACGAAGGAGCCGCTAAGAAGTTATTAAGGTATGAATAATCCCTCAATATAAATATCTCTCACTTATTTAAA | 0.114 | 0.296 | –
40 | ACAGACGAAGGAGCCGCTAAGAAGTTATTAAGTGATGAATAATCCCTCAATATAAATATCTCTCACTTATTTAAA | – | 0.167 | –
41 | ACAGACGAAGGAGCCGCTAAGAAGTTATTAATGGATGAATAATCCCTCAATATAAATATCTCTCACTTATTTAAA | – | 0.172 | –
42 | ACAGACGAAGGAGCCGCTAAGAAGTTCTTAAGGGATGAATAATCCCTCAATACAAATATCTCTCACTTATTTAAA | – | 0.0591 | –
43 | ACAGACGAAGGAGCCGCTAAGAAGTTGTTAAGGGATGAATAATCCCTCAATATAAATATCTCTCACTTATTTAAA | – | 0.503 | –
44 | ACAGACGAAGGAGCCGCTAAGAATTTATTAAGGGATGAATAATCCCTCAATATAAATATCTCTCACTTATTTAAA | – | 0.468 | –
45 | ACAGACGAAGGAGCCGCTAAGATGTTATTAAGGGATGAATAATCCCTCAATATAAATATCTCTCACTTATTTAAA | – | 1.18 | –
46 | ACAGACGAAGGAGCCGCTAAGTAGTTATTAAGGGATGAATAATCCCTCAATATAAATATCTCTCACTTATTTAAA | – | 1.27 | –
47 | ACAGACGAAGGAGCCGCTACGAAGTTATTAAGGGATGAATAATCTCTCAATATAAATATCTCTCACTTATTTAAA | – | 0.816 | –
48 | ACAGACGAAGGAGCCGCTATGAAGTTATTAAGGGATGAATAATCCCTCAATATAAATATCTCTCACTTATTTAAA | – | 0.952 | –
